B1: FLAG-γ134.5 N159 (other)
chain: MARRRRHRGPRRPRPPGPTGAVPTAQSQVTSTPNSEPAVRSAPAAAPPPPPASGPPPSCSLLLRQWLHVPESASDDDDDDDWPDSPPPEPAPEARPTAAAPRPRSPPPGAGPGGGANPSHPPSRPFRLPPRLALRLRVTAEHLARLRLRRAGGEGAPE
notes: Carboxyl-terminal domain deleted; the exact last residue (158 or 159) is uncertain
B2: FLAG-γ134.5 Δ30 (other)
chain: STPNSEPAVRSAPAAAPPPPPASGPPPSCSLLLRQWLHVPESASDDDDDDDWPDSPPPEPAPEARPTAAAPRPRSPPPGAGPGGGANPSHPPSRPFRLPPRLALRLRVTAEHLARLRLRRAGGEGAPEPPATPATPATPATPATPATPATPATPATPATPARVRFSPHVRVRHLVVWASAARLARRGSWARERADRARFRRRVAEAEAVIGPCLGPEARARALARGAGPANSV
notes: Deletion 'encompassing amino acids 1 to 30'
B3: FLAG-γ134.5 Δ72 (other)
chain: MARRRRHRGPRRPRPPGPTGAVPTAQSQVASDDDDDDDWPDSPPPEPAPEARPTAAAPRPRSPPPGAGPGGGANPSHPPSRPFRLPPRLALRLRVTAEHLARLRLRRAGGEGAPEPPATPATPATPATPATPATPATPATPATPATPARVRFSPHVRVRHLVVWASAARLARRGSWARERADRARFRRRVAEAEAVIGPCLGPEARARALARGAGPANSV
notes: Deletion 'encompassing amino acids 30 to 72'; the printed limits overlap with the neighbouring deletions, so the exact junction is uncertain

Molecular target: T1, TBK1 (as used in Example 6; construct not named) (Homo sapiens (Human), UniProt Q9UHD2 1-729)
T1 construct: also called HA-TBK1 (constructed, probably the one used)
T1 sequence: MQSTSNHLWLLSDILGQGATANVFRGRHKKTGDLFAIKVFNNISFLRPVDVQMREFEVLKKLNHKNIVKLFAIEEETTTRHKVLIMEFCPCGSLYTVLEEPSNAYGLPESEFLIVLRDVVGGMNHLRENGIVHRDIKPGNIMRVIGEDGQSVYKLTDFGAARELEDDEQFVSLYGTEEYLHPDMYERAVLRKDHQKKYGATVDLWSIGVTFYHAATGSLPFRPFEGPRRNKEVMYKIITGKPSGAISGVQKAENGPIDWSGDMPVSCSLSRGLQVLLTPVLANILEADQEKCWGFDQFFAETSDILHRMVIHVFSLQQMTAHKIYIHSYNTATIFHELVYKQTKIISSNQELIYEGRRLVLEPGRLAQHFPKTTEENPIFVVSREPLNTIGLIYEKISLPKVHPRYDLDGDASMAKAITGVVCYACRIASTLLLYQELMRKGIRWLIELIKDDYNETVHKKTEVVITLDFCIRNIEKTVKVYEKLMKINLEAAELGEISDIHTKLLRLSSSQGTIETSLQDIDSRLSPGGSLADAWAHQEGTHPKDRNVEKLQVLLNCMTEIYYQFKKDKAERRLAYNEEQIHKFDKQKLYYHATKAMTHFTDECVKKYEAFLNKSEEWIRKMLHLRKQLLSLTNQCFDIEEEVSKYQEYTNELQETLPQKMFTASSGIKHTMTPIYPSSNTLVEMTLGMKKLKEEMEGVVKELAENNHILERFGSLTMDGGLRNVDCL
Assay: co-immunoprecipitation from transfected 293T cells

Binder | binding result
B1 | binds
B2 | binds
B3 | binds
